Laboratory results: the supplement of paper PMC11865577

What was measured:
Experiment in all cases: pull-down binding Z-score (relative to library population); higher = stronger binding
[1] = system: G-clamp-N3 (biotin conjugate); settings: RNA library: Library-1 (pre-miRNA loops + repeats)
Outline: (§1)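 Binding is given as a Z-score against the library mean and standard deviation, calculated after removing the beads-only signal and averaging barcoded replicate probes without their highest and lowest values. Cy5- or Cy3-end-labelled RNA library (1 μg) was heat-folded in phosphate/NaCl/KCl buffer and incubated 60 min at 25 °C with streptavidin beads bearing 100 pmol of biotin-conjugated small molecule. After three washes, RNA eluted in hot SDS was hybridised to a DNA barcode microarray for 20 h at 55.5 °C.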

[2] = system: TO-3-N3 (biotin conjugate); settings: RNA library: Library-2
Outline: as §1

[3] = system: TO-3-N3-2 (biotin conjugate); settings: RNA library: Library-2
Outline: as §1

TO-N3 (biotin conjugate) = settings: RNA library: Library-2
Outline: as §1

[4] = system: TO-N3-2 (biotin conjugate); settings: RNA library: Library-2
Outline: as §1

Sequence	pull-down binding Z-score [1]	pull-down binding Z-score [2]	pull-down binding Z-score [3]	pull-down binding Z-score (TO-N3 (biotin conjugate))	pull-down binding Z-score [4]
CACAAAUAUGGCUCUUUGUG [hsa-mir-4474]	-0.738	-0.637	-0.469	-0.809	-0.657
CACAAGACUAGGCUUCCCUGUG [hsa-mir-3152]	-0.785	0.212	0.0303	0.13	-0.0548
CACAAUAUUUAGGACAACAAUAUU [hsa-mir-1302-6]	-0.807	-0.282	0.226	-0.362	-0.518
CACACACAAUCACCAUGUG [hsa-mir-3118-1]	-0.57	-0.577	-0.386	-0.942	-1.07
CACACACAAUCACCGUGUG [hsa-mir-3118-2_3118-3_3118-4]	0.27	0.0723	-0.0846	-0.218	-1.24
CACACAUACAUAUAUAUAUGUUUG [hsa-mir-3149]	-0.604	0.618	0.18	0.379	-0.501
CACACGCUUUAUUUGUGCCGUUUG [hsa-mir-758]	-0.691	-0.0281	-0.318	-0.164	-0.655
CACACUGGUGAGGUAACAGGAUCCGGUG [hsa-mir-182]	0.926	0.159	0.0141	0.38	0.691
CACAGAGUAAGCAUCAAUAGCAUUGGCAAGUUGAACUGAGCUGUC [hsa-mir-6895]	-0.438	-0.393	-0.0293	0.466	1.37
CACAGUUCUGG [hsa-mir-761]	0.647	0.292	-0.473	0.102	0.18
CACCAAAGGGUUAAGGGUUUGCUCUGGAG [hsa-mir-4653]	-0.264	-0.018	0.0957	0.124	0.14
CACCAGCCAGGCAUUGCUCAGCCCGUUUCCCUCUGGGGGAGCAAGGAGUGGUGCUGGGUUUGUC [hsa-mir-593]	-0.156	0.762	-0.0489	1.15	1.24
CACCUCCCGGCCCGGAGCUG [hsa-mir-4734]	0.0744	-0.243	-0.473	-0.0704	0.527
CACGAGAUACCAGUGUGCACUUGUG [hsa-mir-542]	-0.858	-0.51	-0.425	-0.441	0.103
CACGAGAUUGGGUUGUGCAGAGGCUGACACUUG [hsa-mir-5004]	0.93	-0.363	0.0781	-0.0226	0.63
CACGCAUUUGCUUUACUUGCAAUGAUUAUA [hsa-mir-300]	-0.374	0.485	0.215	0.583	0.472
CACGCCGCGCCGCCGGGUCCCUCCUCCCCGGAGAGGCUG [hsa-mir-4674]	0.455	0.257	-0.048	0.606	1.56
CACUAAUGUGAUUAAUGUUGUUGUG [hsa-mir-3657]	-1.39	-0.405	-0.0793	-0.611	-0.402
CACUACAAGAAGAAUGUAGUUGUG [hsa-mir-19a]	1.3	-0.108	0.234	-0.154	0.739
CACUCAGGCAGUGCCAUGAGC [hsa-mir-6811]	-0.12	0.249	-0.366	0.408	0.422
CACUCAGUAAAUAUUUGUUGAGUG [hsa-mir-1271]	0.231	-0.368	-0.186	-0.674	-1.18
CACUCCCGGGAUCCCCAGGGAC [hsa-mir-3176]	-1.23	0.149	-0.144	0.25	0.68
CACUCCCGUGCUUGUCCGAGGAGGGAGG [hsa-mir-149]	1.29	1.78	0.731	2.63	2.78
CACUCUCCCUAAUGGGGCUGAAGACAGCUCAGGGGCAGGGUG [hsa-mir-4472-1]	1.88	-0.357	-0.583	-0.273	0.191
CACUGAUUCAGUAAAAUACUCAGUG [hsa-mir-891a]	-0.252	-0.707	-0.845	-1.09	-1.35

Sequence	pull-down binding Z-score [1]	pull-down binding Z-score [2]	pull-down binding Z-score [3]	pull-down binding Z-score (TO-N3 (biotin conjugate))	pull-down binding Z-score [4]
CACUGCAGUUACCCUCCCCUCGGCGUUACUGAGCACUG [hsa-mir-637]	-0.893	0.22	0.224	0.603	0.948
CACUUUCUGCUCUCUGGUGAAAGUG [hsa-mir-371a]	0.951	0.0211	-0.0736	-0.0106	-0.309
CAGACAAUAUAGCUGAGUUUGUCUG [hsa-mir-215]	-0.604	-0.801	-0.547	-1.24	-1.03
CAGACCAUGCCACAUCCGUCUG [hsa-mir-7152]	-0.704	-0.515	-0.604	-0.651	-0.334
CAGACGGCUUUCUCUCCGAAUGUCUG [hsa-mir-2276]	-0.958	-0.908	-0.376	-1.12	-0.639
CAGACUCUG [hsa-mir-4326]	1.33	0.067	-0.381	-0.0561	-0.0772
CAGACUGUCUUCCCAAAUAGCCUG [hsa-mir-4772]	-1.42	0.00537	-0.219	-0.0312	-0.223
CAGAGAUGAAAUUGGGACUCCUCU [hsa-mir-7157]	-0.282	0.189	0.343	0.499	0.835
CAGAGCUGCAGCUGCUCCACCCUG [hsa-mir-6730]	-0.915	0.563	0.319	1.12	1.42
CAGAGGCAUCGGGUCAG [hsa-mir-4746]	1.75	0.807	0.516	1.19	1.35
CAGAGGCUGGCUUUCCAAAACUCUG [hsa-mir-1913]	-0.379	0.996	0.266	0.884	0.235
CAGAGGGAGGCCAAGAAGACCUCUG [hsa-mir-4793]	2.73	-0.656	-0.445	-0.402	0.354
CAGAGGGGCUGGCAGUACUGCUCUG [hsa-mir-4649]	2.75	0.999	0.258	1.08	1.22
CAGAGGUCCCACAGCAGGGCUGGAAAGCACACCUGUGGGACUUCUG [hsa-mir-3922]	0.395	0.224	0.0101	0.231	-0.164
CAGAGUGGGCUCACCUCUCGCCCACACUG [hsa-mir-6760]	-0.917	-0.556	-0.336	-0.637	-0.38
CAGAGUGUGCAUGGCAGGCU [hsa-mir-7156]	-0.349	0.383	0.342	0.869	0.86
CAGAGUUCCCUUCUUGUGAGCUCAG [hsa-mir-6733]	-0.936	-0.518	-0.714	-0.415	0.42
CAGAUACUUUUUAAAAUUUGUUUGAGUUGAGGCAGAUUAAAUAUCUG [hsa-mir-4742]	0.164	-0.76	0.104	-0.82	-0.673
CAGCACUGAGCAGGCAGUGUUGU [hsa-mir-4288]	-0.48	-0.241	-0.325	-0.149	0.42
CAGCAGCAGCAGCAGCAGCAGCAGCAGCAGCAGCAGCAGCAGCAGCAG [r(CAG)16]	1.2	0.922	-0.0193	1.6	1.29
CAGCCAUGACCUGACCUUCUGUCUG [hsa-mir-4677]	-0.499	-0.163	-0.165	-0.0686	0.513
CAGCCCCGUGUGUUGAGGAAGGAAGG [hsa-mir-940]	1.54	0.485	0.769	1.24	1.95
CAGCCCGUGGUGGGG [hsa-mir-3619]	0.788	0.721	0.115	0.752	0.751
CAGCCCUGCACUGAAC [hsa-mir-614]	-1.84	0.285	0.00113	0.941	1.39
CAGCCUGGGGCAUCGGUUG [hsa-mir-5572]	-0.0198	2.41	1.31	2.01	1.02

Sequence	pull-down binding Z-score [1]	pull-down binding Z-score [2]	pull-down binding Z-score [3]	pull-down binding Z-score (TO-N3 (biotin conjugate))	pull-down binding Z-score [4]
CAGCCUGUUGUCAAGGCUG [hsa-mir-3130-1]	-0.13	0.535	0.129	0.712	-0.199
CAGCCUUGACAACAGGCUG [hsa-mir-3130-2]	-0.151	0.503	-0.184	0.391	-0.289
CAGCUACACAAGCUG [hsa-mir-631]	1.64	-0.0598	-0.33	-0.53	-0.859
CAGCUGUUGUCUCCAGAGCAUUCCAGCUG [hsa-mir-191]	-0.433	0.371	-0.002	0.648	1.46
CAGCUUGCUCUGCUUU [hsa-mir-4303]	0.072	-0.387	0.0132	-0.189	0.0746
CAGGAGUGGACACCUG [hsa-mir-1246]	-0.505	-0.0928	-0.238	-0.198	-0.454
CAGGAUUAGUGCUUAUGCUAAGAUGUCUUCACUG [hsa-mir-6773]	0.887	-0.824	-0.269	-0.75	-0.301
CAGGCAGUGGAGUUACUU [hsa-mir-600]	-1.07	0.683	0.557	1.01	1
CAGGCCAGGGGCAGACAGUGGACAGAGAACAGUGCCCAAGACCACUG [hsa-mir-378e]	1.13	0.426	0.736	1.27	1.73
CAGGCGGGGCAGCCCAAUGCCAUGGGCCUGAU [hsa-mir-4695]	2.14	0.737	0.157	1.32	1.92
CAGGCUGCUAAACAACAGAACGAGCACUG [hsa-mir-378f]	0.125	-0.22	-0.122	-0.0846	0.421
CAGGCUGGUCUCAAACUCCUGGUCUG [hsa-mir-1285-1]	-0.288	-0.202	-0.352	-0.217	-0.123
CAGGCUGUGGCUCUCUGAAAGUC [hsa-mir-148b]	-1.29	0.761	0.496	1.09	1.18
CAGGGAACUUUAAAACC [hsa-mir-4324]	0.493	0.41	0.387	0.483	0.306
CAGGGCGGUGCGGCAGCCGCCACC [hsa-mir-3621]	-0.214	0.771	0.241	1.07	1.24
CAGGGGUUCUGAUAAACCCUUC [hsa-mir-6738]	-0.182	0.622	-0.3	0.458	0.161
CAGGUAGUUUUGGCAUGACUCUACUG [hsa-mir-20b]	-0.719	0.0561	-0.229	0.556	1.44
CAGGUGCCUCAAAGGGCAUCCCACCUG [hsa-mir-3151]	-0.124	-0.578	-0.452	-0.673	0.0349
CAGGUGUUCUUAAAAUCACCUG [hsa-mir-875]	-0.405	-0.63	-0.143	-0.806	-1.05
CAGUAAGCCUUGACUUAUGGCUAAAUGCUUC [hsa-mir-4273]	-1.02	-0.111	0.0166	0.0209	0.273
CAGUACUGGUCUUAGACUG [hsa-mir-554]	0.887	0.477	0.172	0.368	0.25
CAGUAUGAAUGAAUUCAUGAUACUG [hsa-mir-3607]	0.669	-0.768	-0.718	-0.881	-0.531
CAGUCAGUAAAUAUUUUUUUGUGAAUG [hsa-mir-511]	0.202	-0.305	0.0526	-0.146	-0.132
CAGUCCUGAGAUGCAGGGACUG [hsa-mir-4799]	0.166	-0.626	-0.531	-0.644	-0.727
CAGUGAACUAUCAUUGUGCCACUG [hsa-mir-1254-1]	0.978	0.06	-0.125	0.135	-0.0953
